Data published in patent US20240166756A1 (KAOHSIUNG MEDICAL UNIVERSITY, published 2024).

T1: CXCR2 antigen peptide (NICR2 peptide) (human, not fully specified)
T1 construct: The immunogen was this peptide conjugated with ovalbumin at its C-terminus ('-C-Ovalbumin')
T1 peptide: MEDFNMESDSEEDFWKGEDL


What was measured:
[1] = target: human C-X-C chemokine receptor 2 (CXCR2) (human) (UniProt P25025); assay: flow cytometry, Alexa Fluor-488-conjugated control IgG1 on fixed MiaPaCa II cells (80 µg/ml per paragraph 49)
Sequence of human C-X-C chemokine receptor 2 (CXCR2) (human) (P25025 whole entry): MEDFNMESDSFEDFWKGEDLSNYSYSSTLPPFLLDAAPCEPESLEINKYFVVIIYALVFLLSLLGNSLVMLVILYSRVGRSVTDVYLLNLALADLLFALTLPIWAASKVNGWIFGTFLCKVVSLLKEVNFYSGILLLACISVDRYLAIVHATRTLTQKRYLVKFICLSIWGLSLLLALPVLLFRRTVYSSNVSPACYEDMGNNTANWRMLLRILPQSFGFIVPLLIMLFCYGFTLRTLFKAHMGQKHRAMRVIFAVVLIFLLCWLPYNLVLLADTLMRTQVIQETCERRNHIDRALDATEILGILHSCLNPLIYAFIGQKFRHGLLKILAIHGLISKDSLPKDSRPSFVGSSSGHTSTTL

[2] = target: human C-X-C chemokine receptor 2 (CXCR2) (human) (UniProt P25025); assay: flow cytometry, Alexa Fluor-488-conjugated control IgG1 on fixed HMC-1 cells (80 µg/ml per paragraph 49)
[3] = target: human C-X-C chemokine receptor 2 (CXCR2) (human) (UniProt P25025); assay: flow cytometry, Alexa Fluor-488-conjugated control IgG1 on fixed Panc-1 cells (80 µg/ml per paragraph 49)
[4] = target: T1, CXCR2 antigen peptide (NICR2 peptide); assay: SPR (Biacore), antibody flowed over the NICR2 peptide, Langmuir 1:1 fit
Source text: Equilibrium affinity and rate constants derived from a Langmuir 1:1 binding kinetic analysis. The interactions between the humanized anti-CXCR2 mAb and the CXCR2 antigen peptide (NICR2 peptide) were detected by using SPR. The humanized anti-CXCR2 mAb flowed through the CXCR2 antigen peptide (NICR2 peptide) at the indicated concentrations. Data were corrected for nonspecific background binding. All data are representative of three independent experiments. […] Data shown is representative of 3 independent experiments.
The binding affinity of the humanized anti-CXCR2 monoclonal antibody (NICR2-5) was further investigated by surface plasmon resonance (SPR) Biacore technique. […] The binding of the humanized anti-CXCR2 mAb (NICR2-5) to cell surface receptor was analyzed by flow cytometry. Control IgG1 or humanized anti-CXCR2 mAb (NICR2-5) were conjugated with Alexa Fluor-488 fluorescent dye. Cancer cells were fixed with 3.5% formaldehyde for 15 min at room temperature. Fixed cells were incubated with fluorescent dye-conjugated IgG1 (80 μg/ml), or different concentrations of humanized anti-CXCR2 mAb (NICR2-5) (0, 40, 80 μg/ml) at 4° ° C. for 1 h. Cells were washed with phosphate-buffered saline (PBS) three times and subjected to flow cytometric analysis by using Attune NxT Flow Cytometer.

Gated (%) [1] [%] | Gated (%) [2] [%] | Gated (%) [3] [%] | Kd [4] [pM] | Molecule
9.3 | 6.6 | 8.2 | – | hIgG (antibody)
– | – | – | 300 | humanized anti-CXCR2 monoclonal antibody (NICR2-5) (antibody, human IgG1, kappa, V domains shown, CDRs cloned into human IgG1 vector; Conjugated with Alexa Fluor-488 for flow cytometry; also called anti-CXCR2 mAb; humanized anti-CXCR2 mAb (NICR2-5)) VH: QITLKESGPTLVKPTQTLTLTCTFSGFSLRTSGMGVGWIRQPPGKALEWLAHIWWDDDKRYKPDLKSRLTITKDTSKNQVVLTMTNMDPVDTATYYCARLGLRLRTMDYWGQGTLVTVSS VL: DIVMTQTPLSLSVTPGQPASISCRSSLSLVHSNGDTYLHWYLQKPGQSPQLLIYKVSNRFSGVPDRFSGSGSGTDFTLKISRVEAEDVGVYYCSQSTHVPTFGQGTKLEIKR
